T1: Recombinant mouse MMR (R&D Systems) (mouse, UniProt Q61830 20-1388)
T1 construct: Bought from R&D Systems; Immobilised on CM5 chip (SPR) or coated on plates (ELISA); also called mMMR; recombinant mMMR
T1 sequence: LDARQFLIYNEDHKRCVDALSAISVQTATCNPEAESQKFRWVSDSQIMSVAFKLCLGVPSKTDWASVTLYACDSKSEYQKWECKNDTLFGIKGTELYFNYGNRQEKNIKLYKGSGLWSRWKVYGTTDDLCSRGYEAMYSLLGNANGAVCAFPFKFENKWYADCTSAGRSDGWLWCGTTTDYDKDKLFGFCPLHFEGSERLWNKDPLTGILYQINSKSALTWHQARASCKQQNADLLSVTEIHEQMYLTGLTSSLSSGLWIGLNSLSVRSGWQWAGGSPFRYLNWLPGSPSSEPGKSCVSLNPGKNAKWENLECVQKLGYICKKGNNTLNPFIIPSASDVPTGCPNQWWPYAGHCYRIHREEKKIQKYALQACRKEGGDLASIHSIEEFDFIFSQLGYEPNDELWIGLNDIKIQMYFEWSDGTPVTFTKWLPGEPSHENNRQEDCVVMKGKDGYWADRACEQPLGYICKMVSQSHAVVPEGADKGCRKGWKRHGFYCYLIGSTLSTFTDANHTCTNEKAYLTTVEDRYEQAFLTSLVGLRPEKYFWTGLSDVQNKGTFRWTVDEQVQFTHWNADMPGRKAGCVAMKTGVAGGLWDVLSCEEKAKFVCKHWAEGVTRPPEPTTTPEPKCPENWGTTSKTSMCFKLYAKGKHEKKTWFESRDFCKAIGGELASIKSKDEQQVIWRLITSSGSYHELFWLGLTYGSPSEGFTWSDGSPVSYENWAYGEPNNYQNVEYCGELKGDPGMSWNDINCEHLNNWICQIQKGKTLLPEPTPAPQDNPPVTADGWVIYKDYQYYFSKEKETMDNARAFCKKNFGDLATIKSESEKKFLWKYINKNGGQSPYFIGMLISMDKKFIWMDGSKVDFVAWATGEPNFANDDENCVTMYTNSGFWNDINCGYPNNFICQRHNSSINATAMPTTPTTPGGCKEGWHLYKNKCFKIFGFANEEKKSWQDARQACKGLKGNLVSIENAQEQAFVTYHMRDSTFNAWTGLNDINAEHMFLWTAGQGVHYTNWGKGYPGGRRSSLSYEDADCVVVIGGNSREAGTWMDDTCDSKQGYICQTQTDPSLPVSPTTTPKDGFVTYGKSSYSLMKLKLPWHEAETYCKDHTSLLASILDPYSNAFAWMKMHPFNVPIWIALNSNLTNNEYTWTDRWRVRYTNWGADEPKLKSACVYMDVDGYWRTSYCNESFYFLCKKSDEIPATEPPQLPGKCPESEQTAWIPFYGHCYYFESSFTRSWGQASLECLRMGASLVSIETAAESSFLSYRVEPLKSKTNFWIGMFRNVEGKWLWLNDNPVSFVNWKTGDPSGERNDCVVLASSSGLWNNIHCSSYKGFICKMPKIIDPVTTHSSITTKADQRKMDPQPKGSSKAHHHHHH

T2: Recombinant human MMR (R&D Systems) (human, UniProt P22897 19-1383)
T2 construct: Bought from R&D Systems; also called hMMR; recombinant hMMR
T2 sequence: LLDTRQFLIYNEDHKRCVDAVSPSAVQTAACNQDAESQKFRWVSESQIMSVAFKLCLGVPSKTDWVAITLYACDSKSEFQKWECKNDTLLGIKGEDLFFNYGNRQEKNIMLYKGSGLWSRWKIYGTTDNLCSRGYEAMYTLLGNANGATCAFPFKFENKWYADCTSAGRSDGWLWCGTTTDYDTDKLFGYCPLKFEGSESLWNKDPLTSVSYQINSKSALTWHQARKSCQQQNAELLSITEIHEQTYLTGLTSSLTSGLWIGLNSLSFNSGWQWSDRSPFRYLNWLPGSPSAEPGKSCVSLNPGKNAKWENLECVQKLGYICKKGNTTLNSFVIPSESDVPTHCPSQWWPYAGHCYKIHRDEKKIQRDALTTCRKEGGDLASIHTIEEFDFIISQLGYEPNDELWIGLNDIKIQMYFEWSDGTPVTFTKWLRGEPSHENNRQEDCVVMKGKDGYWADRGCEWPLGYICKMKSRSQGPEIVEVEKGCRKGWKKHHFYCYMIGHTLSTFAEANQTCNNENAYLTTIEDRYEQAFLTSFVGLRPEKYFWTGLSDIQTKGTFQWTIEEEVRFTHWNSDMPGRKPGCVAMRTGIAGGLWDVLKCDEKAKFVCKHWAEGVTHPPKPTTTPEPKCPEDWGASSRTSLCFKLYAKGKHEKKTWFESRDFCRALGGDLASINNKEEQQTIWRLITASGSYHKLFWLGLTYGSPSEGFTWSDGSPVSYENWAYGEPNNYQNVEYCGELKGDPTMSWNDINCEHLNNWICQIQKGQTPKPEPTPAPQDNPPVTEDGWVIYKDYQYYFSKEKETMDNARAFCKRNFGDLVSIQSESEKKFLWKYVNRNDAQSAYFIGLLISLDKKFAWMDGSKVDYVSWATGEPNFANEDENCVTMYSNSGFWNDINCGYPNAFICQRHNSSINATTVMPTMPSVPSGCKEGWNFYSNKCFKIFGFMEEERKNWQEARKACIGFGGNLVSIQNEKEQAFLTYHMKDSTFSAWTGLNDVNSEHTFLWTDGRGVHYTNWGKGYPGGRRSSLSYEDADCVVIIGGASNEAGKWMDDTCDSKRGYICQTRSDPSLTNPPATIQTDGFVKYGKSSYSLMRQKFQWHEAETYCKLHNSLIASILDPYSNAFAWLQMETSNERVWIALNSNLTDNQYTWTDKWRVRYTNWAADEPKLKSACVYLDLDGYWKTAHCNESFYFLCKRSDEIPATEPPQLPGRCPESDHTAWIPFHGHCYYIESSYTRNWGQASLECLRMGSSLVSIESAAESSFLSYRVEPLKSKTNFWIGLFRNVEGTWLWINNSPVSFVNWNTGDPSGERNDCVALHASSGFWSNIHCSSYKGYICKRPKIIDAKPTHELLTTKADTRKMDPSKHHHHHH

B1: Anti-MMR Nanobody clone 1 (VHH)
VHH: QVQLQESGGGLVQPGGSLRLSCAASGNIFSINAIGWYRQAPGKQRELVATITLSGSTNYADSVKGRFSISRDNAKNTVYLQMNSLKPEDTAVYYCNANTYSDSDVYGYWGQGTQVTVSS
notes: 99mTc-labelled at the His tail in the in vivo experiments; also called Anti-MMR Nb1; Nb MMR cl1
B2: Anti-MMR Nanobody clone 3 (VHH)
VHH: QVQLQESGGGLVQAGGSLRLSCAASGRTFSRDAMGWFRQAPGKEREFVAGISWSGGSTYYADSVKGRFTISRDGAKNTVNLQMNSLKPEDTAVYYCAASSIYGSAVVDGLYDYWGQGTQVTVSS
notes: Monovalent, His-tagged; also called Anti-MMR Nb3; Nb clone 3
B3: Bivalent anti-MMR Nanobody 1 with (Gly4Ser)3 linker (VHH)
chain: QVQLQESGGGLVQPGGSLRLSCAASGNIFSINAIGWYRQAPGKQRELVATITLSGSTNYADSVKGRFSISRDNAKNTVYLQMNSLKPEDTAVYYCNANTYSDSDVYGYWGQGTQVTVSSGGGGSGGGGSGGGGSQVQLQESGGGLVQPGGSLRLSCAASGNIFSINAIGWYRQAPGKQRELVATITLSGSTNYADSVKGRFSISRDNAKNTVYLQMNSLKPEDTAVYYCNANTYSDSDVYGYWGQGTQVTVSSHHHHHH
notes: Bivalent tandem of two clone 1 VHH domains in one chain; also called biv MMR linker 1 GS; MMR biv (Gly4Ser)3
B4: Bivalent anti-MMR Nanobody 1 with llama IgG2 hinge linker (VHH)
chain: QVQLQESGGGLVQPGGSLRLSCAASGNIFSINAIGWYRQAPGKQRELVATITLSGSTNYADSVKGRFSISRDNAKNTVYLQMNSLKPEDTAVYYCNANTYSDSDVYGYWGQGTQVTVSSAHHSEDPSSKAPKAPMAQVQLQESGGGLVQPGGSLRLSCAASGNIFSINAIGWYRQAPGKQRELVATITLSGSTNYADSVKGRFSISRDNAKNTVYLQMNSLKPEDTAVYYCNANTYSDSDVYGYWGQGTQVTVSSHHHHHH
notes: Bivalent tandem of two clone 1 VHH domains in one chain; also called biv MMR linker 2 g2c; MMR biv g2c
B5: Bivalent anti-MMR Nanobody 1 with human IgA hinge linker (VHH)
chain: QVQLQESGGGLVQPGGSLRLSCAASGNIFSINAIGWYRQAPGKQRELVATITLSGSTNYADSVKGRFSISRDNAKNTVYLQMNSLKPEDTAVYYCNANTYSDSDVYGYWGQGTQVTVSSSPSTPPTPSPSTPPASQVQLQESGGGLVQPGGSLRLSCAASGNIFSINAIGWYRQAPGKQRELVATITLSGSTNYADSVKGRFSISRDNAKNTVYLQMNSLKPEDTAVYYCNANTYSDSDVYGYWGQGTQVTVSSHHHHHH
notes: Bivalent tandem of two clone 1 VHH domains in one chain; also called biv MMR linker 3 IgA; MMR biv IgA

Assays:
[1] = target: T1, Recombinant mouse MMR (R&D Systems); assay: SPR, BIAcore T100, mouse MMR on CM5 chip
Description: (§1) Affinity analysis was performed using a BIAcore T100 (GE Healthcare) with HEPES-buffered saline running buffer (10 mM HEPES with 0.15 M NaCl, 3.4 mM EDTA and 0.005% surfactant P20 at pH 7.4). MRR was immobilized on a CM5 chip in acetate buffer 50 mM (pH 5.0), resulting in 2100 RU MMR coated on the chip. A second channel on the same chip was activated/deactivated in a similar way and served as a negative control. The MMR Nanobodies were used as analytes in 11 different concentrations, ranging from 1 to 2000 nM, at a flow rate of […]. Glycine-HCl 50 mM (pH 2.0) was used for elution. The kinetic and equilibrium parameters (kd, ka and KD) values were calculated from the combined sensogram of all concentrations using BIAcore T100 evaluation software 2.02 (GE Healthcare).
(§2) The binding characteristics and affinity of selected Nbs towards the recombinant hMMR and recombinant mMMR antigen was examined in further detail using surface plasmon resonance. A combined sensogram was recorded for each Nb (example for NbhmMMRm3.49 in FIG. 7) and the kinetic and equilibrium parameters (kd, ka and KD) values were calculated (Table 8 and Table 9). Most but not all results on binding to mouse or human rMMR obtained via this SPR analysis are in agreement with the results obtained by PE-ELISA.

[2] = target: T2, Recombinant human MMR (R&D Systems); assay: SPR, BIAcore T100, human MMR on CM5 chip
Description: as §1, §2

[3] = target: T1, Recombinant mouse MMR (R&D Systems); assay: SPR, BIAcore T100, MMR on CM5 chip, Nanobody as analyte
Description: as §1
Anti-CD206 (anti-MMR) Nanobodies (Nbs), which are the smallest available antigen-binding entities, were created in order to target MMR-positive cells in vivo. Nanobodies were raised against the recombinant extracellular portion of MMR, as described in the Materials and Methods (see also Table 1). The binding characteristics of the monovalent anti-MMR Nanobodies were compared using surface Plasmon resonance (SPR) measurements (Table 2).

[4] = target: T1, Recombinant mouse MMR (R&D Systems); assay: SPR, immobilised recombinant MMR
Description: as §1
Bivalent Nanobodies were constructed by linking two anti-MMR Nanobody 1 entities using (G₄S)₃ ([…]; SEQ ID NO:151), llama IgG2 hinge ([…]; SEQ ID NO:152) or human IgA hinge ([…] SEQ ID NO:153) linkers. […] As a negative control Nanobody in all experiments, we consistently used α-BCII10 Nb, which is a binder of the β-lactamase BCII enzyme of Bacillus cereus.

Binder	koff [1]	kon [1]	binding result [2]	koff [3]	kon [3]	fold increase in KD (so in the source) compared to the monovalent clone 1 Nanobody [4]
B1	0.0133 s⁻¹	576000 M⁻¹ s⁻¹	no binding (tested: analyte 1 to 2000 nM)	0.0133 s⁻¹	576000 M⁻¹ s⁻¹	
B2	0.0186 s⁻¹	97300 M⁻¹ s⁻¹	no binding (tested: analyte 1 to 2000 nM)	0.0186 s⁻¹	97300 M⁻¹ s⁻¹	
B3				0.0044 s⁻¹	1.04e+06 M⁻¹ s⁻¹	3 fold
B4				0.00411 s⁻¹	1.02e+06 M⁻¹ s⁻¹	3 fold
B5				0.00428 s⁻¹	913000 M⁻¹ s⁻¹	3 fold
